Drawing on patent US20170335310A1, this text covers cofactor for factor I-catalysed cleavage of C3b to iC3b (SDS-PAGE, Coomassie blue) and Kd for one substance.

Assay [1] addresses C3b (UniProt P01024). The experiment in a line: cell-based or functional assay.
Assay [2] has as its target C3b (UniProt P01024). The experiment in a line: SPR (Biacore), FH flowed over C3b amine-coupled to a CM5 chip; steady-state fit to two flow cells (1540 and 3030 RU C3b) together.

Sequence of C3b (P01024 749-1663 limits assumed, chain 1 of 2): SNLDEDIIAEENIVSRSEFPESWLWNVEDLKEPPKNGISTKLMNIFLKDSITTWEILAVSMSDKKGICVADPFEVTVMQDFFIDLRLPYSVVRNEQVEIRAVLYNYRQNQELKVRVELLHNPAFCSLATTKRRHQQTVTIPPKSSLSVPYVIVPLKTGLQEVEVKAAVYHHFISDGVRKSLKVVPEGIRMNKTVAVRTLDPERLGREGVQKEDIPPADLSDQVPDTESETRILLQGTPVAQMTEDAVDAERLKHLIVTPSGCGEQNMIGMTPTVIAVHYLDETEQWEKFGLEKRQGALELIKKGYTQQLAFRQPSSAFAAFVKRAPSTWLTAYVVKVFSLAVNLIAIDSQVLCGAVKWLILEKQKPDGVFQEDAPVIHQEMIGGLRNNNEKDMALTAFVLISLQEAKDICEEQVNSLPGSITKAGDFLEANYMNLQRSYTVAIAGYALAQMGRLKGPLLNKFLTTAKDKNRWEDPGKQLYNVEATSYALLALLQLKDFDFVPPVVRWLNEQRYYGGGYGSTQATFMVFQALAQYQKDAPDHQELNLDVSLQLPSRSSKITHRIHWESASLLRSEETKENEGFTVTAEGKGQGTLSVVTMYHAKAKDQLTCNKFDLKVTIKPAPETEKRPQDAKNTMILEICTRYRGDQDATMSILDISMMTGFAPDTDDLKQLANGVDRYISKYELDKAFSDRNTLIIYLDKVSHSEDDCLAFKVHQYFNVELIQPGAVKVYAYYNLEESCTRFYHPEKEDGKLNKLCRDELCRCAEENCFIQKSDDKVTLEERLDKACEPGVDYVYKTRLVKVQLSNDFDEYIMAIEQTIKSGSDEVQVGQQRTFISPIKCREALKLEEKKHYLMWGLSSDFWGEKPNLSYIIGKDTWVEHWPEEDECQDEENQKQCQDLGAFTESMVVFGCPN
Sequence of C3b (P01024 23-667 limits assumed, chain 2 of 2): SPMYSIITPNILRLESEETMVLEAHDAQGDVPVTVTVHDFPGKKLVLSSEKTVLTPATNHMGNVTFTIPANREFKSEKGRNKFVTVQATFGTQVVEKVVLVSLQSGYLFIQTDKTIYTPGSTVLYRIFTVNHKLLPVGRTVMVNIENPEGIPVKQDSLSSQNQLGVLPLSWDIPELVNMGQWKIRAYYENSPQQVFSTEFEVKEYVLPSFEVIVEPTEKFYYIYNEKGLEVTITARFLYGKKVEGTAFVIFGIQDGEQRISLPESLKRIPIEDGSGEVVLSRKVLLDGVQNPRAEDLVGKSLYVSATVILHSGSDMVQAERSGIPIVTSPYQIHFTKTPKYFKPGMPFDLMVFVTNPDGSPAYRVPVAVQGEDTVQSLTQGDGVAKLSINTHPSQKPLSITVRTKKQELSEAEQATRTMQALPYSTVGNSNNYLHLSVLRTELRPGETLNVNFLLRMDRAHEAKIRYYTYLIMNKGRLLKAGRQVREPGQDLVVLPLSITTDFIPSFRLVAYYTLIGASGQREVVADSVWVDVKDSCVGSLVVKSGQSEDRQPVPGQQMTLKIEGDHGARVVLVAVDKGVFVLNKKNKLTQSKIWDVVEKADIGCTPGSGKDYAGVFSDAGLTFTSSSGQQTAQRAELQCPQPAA

In turn, “recombinant human complement factor H produced in Pichia pastoris from codon-optimised DNA (Example 2) (from UniProt P08603 19-1231)” returned a cofactor for factor I-catalysed cleavage of C3b to iC3b (SDS-PAGE, Coomassie blue) in assay [1] below 5 min. Besides, the Kd in assay [2] worked out at 1400 nM.
